# Experimental data from patent US6468532 (dated 2002).
# Target: recombinant human IL-8, (ser-IL-8)72 (human, UniProt P10145 28-99)
# Test: competition radioimmunoassay (unlabeled IL-8/125I-IL-8)
binder,measurement,value
"full length 6G4V11N35A IgG1 (antibody, V domains shown) VH: EVQLVQSGGGLVQPGGSLRLSCAASGYSFSSHYMHWVRQAPGKGLEWVGYIDPSNGETTYNQKFKGRFTLSRDNSKNTAYLQMNSLRAEDTAVYYCARGDYRYNGDWFFDVWGQGTLVTVSS VL: DIQMTQSPSSLSASVGDRVTITCRSSQSLVHGIGATYLHWYQQKPGKAPKLLIYKVSNRFSGVPSRFSGSGSGTDFTLTISSLQPEDFATYYCSQSTHVPLTFGQGTKVEIKR",IC50,0.059 nM
